From patent publication US9199234

Tests used:
[1] = biological target: Thyroid Stimulating Hormone (TSH) (UniProt P01215); assay: i-STAT sandwich immunoassay, recombinant TSH; row antibody on capture beads; detection ALP conjugate: M4
[2] = biological target: Thyroid Stimulating Hormone (TSH) (UniProt P01215); assay: i-STAT sandwich immunoassay, recombinant TSH; row antibody on capture beads; detection ALP conjugate: T25C
[3] = biological target: Follicle Stimulating Hormone (FSH) (UniProt P01215); assay: i-STAT sandwich, 0.4 mIU/L TSH spiked with FSH, signal increase over TSH alone; capture: row antibody; detection conjugate: 5409
[4] = biological target: Thyroid Stimulating Hormone (TSH) (UniProt P01215); assay: i-STAT sandwich immunoassay, recombinant TSH; row antibody on capture beads; detection ALP conjugate: TSH Ab 544
[5] = biological target: Thyroid Stimulating Hormone (TSH) (UniProt P01215); assay: FRET competition on Alexa-488-labelled antigen (taken as TSH); excess unlabelled antibody first; competitor: BHQ-labelled M4
[6] = biological target: Thyroid Stimulating Hormone (TSH) (UniProt P01215); assay: i-STAT sandwich immunoassay, recombinant TSH; row antibody on capture beads; detection ALP conjugate: 5409
[7] = biological target: Luteinizing Hormone (LH) (UniProt P01215); assay: i-STAT sandwich, 0.4 mIU/L TSH spiked with LH, signal increase over TSH alone; capture: row antibody; detection conjugate: 5409
[8] = biological target: Thyroid Stimulating Hormone (TSH) (UniProt P01215); assay: FRET competition on Alexa-488-labelled antigen (taken as TSH); excess unlabelled antibody first; competitor: BHQ-labelled T25C
[9] = biological target: Thyroid Stimulating Hormone (TSH) (UniProt P01215); assay: FRET competition on Alexa-488-labelled antigen (taken as TSH); excess unlabelled antibody first; competitor: BHQ-labelled TSH Ab 544
[10] = biological target: Follicle Stimulating Hormone (FSH) (UniProt P01215); assay: FRET quenching titration in solution: BHQ-10-labelled antibody, Alexa-Fluor 488-labelled antigen
[11] = biological target: Chorionic Gonadotropin (CG) (UniProt P01215); assay: as above
[12] = biological target: Thyroid Stimulating Hormone (TSH) (UniProt P01215); assay: as above
[13] = biological target: Luteinizing Hormone (LH) (UniProt P01215); assay: as above
[14] = biological target: Thyroid Stimulating Hormone (TSH) (UniProt P01215); assay: FRET competition on Alexa-488-labelled antigen (taken as TSH); excess unlabelled antibody first; competitor: BHQ-labelled 414B
[15] = biological target: Thyroid Stimulating Hormone (TSH) (UniProt P01215); assay: FRET competition on Alexa-488-labelled antigen (taken as TSH); excess unlabelled antibody first; competitor: BHQ-labelled ME130
[16] = biological target: Chorionic Gonadotropin (CG) (UniProt P01215); assay: i-STAT sandwich, 0.4 mIU/L TSH spiked with CG, signal increase over TSH alone; capture: row antibody; detection conjugate: 5409
[17] = biological target: Thyroid Stimulating Hormone (TSH) (UniProt P01215); assay: FRET competition on Alexa-488-labelled antigen (taken as TSH); excess unlabelled antibody first; competitor: BHQ-labelled 5409
[18] = biological target: Luteinizing Hormone (LH) (UniProt P01215); assay: i-STAT LH-detecting cartridge (LH 5304 capture beads, 414B conjugate); polystyrene LH 5304 scavenger beads in the sample; signal without beads = 100%
[19] = biological target: Thyroid Stimulating Hormone (TSH) (UniProt P01215); assay: i-STAT sandwich immunoassay, recombinant TSH; row antibody on capture beads; detection ALP conjugate: ME130
[20] = biological target: Luteinizing Hormone (LH) (UniProt P01215); assay: i-STAT sandwich, 0.4 mIU/L TSH spiked with LH, signal increase over TSH alone; capture: row antibody; detection conjugate: TSH Ab 544
[21] = biological target: Follicle Stimulating Hormone (FSH) (UniProt P01215); assay: i-STAT sandwich, 0.4 mIU/L TSH spiked with FSH, signal increase over TSH alone; capture: row antibody; detection conjugate: TSH Ab 544
[22] = biological target: Chorionic Gonadotropin (CG) (UniProt P01215); assay: i-STAT sandwich, 0.4 mIU/L TSH spiked with CG, signal increase over TSH alone; capture: row antibody; detection conjugate: TSH Ab 544
[23] = biological target: Thyroid Stimulating Hormone (TSH) (UniProt P01215); assay: i-STAT sandwich immunoassay, recombinant TSH; row antibody on capture beads; detection ALP conjugate: 414B
[24] = biological target: Chorionic Gonadotropin (CG) (UniProt P01215); assay: i-STAT sandwich, 0.4 mIU/L TSH spiked with CG, signal increase over TSH alone; capture: row antibody; detection conjugate: 414B
[25] = biological target: Follicle Stimulating Hormone (FSH) (UniProt P01215); assay: i-STAT sandwich, 0.4 mIU/L TSH spiked with FSH, signal increase over TSH alone; capture: row antibody; detection conjugate: 414B
[26] = biological target: Luteinizing Hormone (LH) (UniProt P01215); assay: i-STAT sandwich, 0.4 mIU/L TSH spiked with LH, signal increase over TSH alone; capture: row antibody; detection conjugate: 414B
[27] = biological target: Chorionic Gonadotropin (CG) (UniProt P01215); assay: i-STAT sandwich, 0.4 mIU/L TSH spiked with CG, signal increase over TSH alone; capture: row antibody; detection conjugate: T25C
[28] = biological target: Luteinizing Hormone (LH) (UniProt P01215); assay: i-STAT sandwich, 0.4 mIU/L TSH spiked with LH, signal increase over TSH alone; capture: row antibody; detection conjugate: ME130
[29] = biological target: Luteinizing Hormone (LH) (UniProt P01215); assay: i-STAT sandwich, 0.4 mIU/L TSH spiked with LH, signal increase over TSH alone; capture: row antibody; detection conjugate: T25C
[30] = biological target: Follicle Stimulating Hormone (FSH) (UniProt P01215); assay: i-STAT sandwich, 0.4 mIU/L TSH spiked with FSH, signal increase over TSH alone; capture: row antibody; detection conjugate: ME130
[31] = biological target: Follicle Stimulating Hormone (FSH) (UniProt P01215); assay: i-STAT sandwich, 0.4 mIU/L TSH spiked with FSH, signal increase over TSH alone; capture: row antibody; detection conjugate: T25C
[32] = biological target: Chorionic Gonadotropin (CG) (UniProt P01215); assay: i-STAT sandwich, 0.4 mIU/L TSH spiked with CG, signal increase over TSH alone; capture: row antibody; detection conjugate: ME130

electrochemical current of sandwich immunoassay [1]	electrochemical current of sandwich immunoassay [2]	FSH CR (%) [3]	electrochemical current of sandwich immunoassay [4]	relative fluorescence [5]	electrochemical current of sandwich immunoassay [6]	LH CR (%) [7]	relative fluorescence [8]	relative fluorescence [9]	Kd [10]	Kd [11]	Kd [12]	Kd [13]	relative fluorescence [14]	relative fluorescence [15]	CG CR (%) [16]	relative fluorescence [17]	electrochemical current of sandwich immunoassay [19]	Substance	other results
50.5 nA	-0.1 nA	3.9%	10.8 nA	0.77	54.7 nA	11.1%	0.88	0.82	70 nM	45 nM	0.04 nM	54 nM	0.99	1	11.8%	0.82	–	AbCAM ME-130 mouse monoclonal antibody	–
–	–	–	–	–	–	–	–	–	–	–	–	–	–	–	–	–	–	Biospacific LH 5304 monoclonal antibody (mus beta-LH, Catalog #5304 SP-5)	signal remaining after scavenger beads (%) [18]: 4%
–	22.5 nA	–	0 nA	1	20.7 nA	–	0.74	0.98	210 nM	554 nM	0.18 nM	300 nM	0.9	0.76	–	0.94	39.9 nA	Fitzgerald 10C-CR2151M4 mouse monoclonal antibody	–
41.3 nA	–	260%	10.2 nA	0.75	40.3 nA	348%	0.76	0.83	0.1 nM	0.05 nM	0.04 nM	0.05 nM	1	0.86	84.6%	0.81	–	Seradyn anti-alpha-LH monoclonal antibody (Seradyn, Cat#MIT0414B)	LH CR (%) [20]: 467%; FSH CR (%) [21]: 219%; CG CR (%) [22]: 39.2%
0.11 nA	22.4 nA	–	–	0.92	7.98 nA	–	0.71	1	1000 nM	210 nM	1.31 nM	1000 nM	0.89	0.72	–	0.96	34.9 nA	TSH Antibody 544 (Abbott Diagnostics Division)	electrochemical current of sandwich immunoassay [23]: 25 nA; CG CR (%) [24]: 117%; FSH CR (%) [25]: 7.15%; LH CR (%) [26]: 11.8%
15.2 nA	34.6 nA	–	1.41 nA	0.9	–	–	0.78	0.93	1000 nM	500 nM	0.1 nM	1000 nM	0.88	0.78	–	1	53.6 nA	TSH capture mouse monoclonal antibody Biospacific Cat#5409 SPTNE-5	CG CR (%) [27]: 0.96%; LH CR (%) [28]: 10.1%; LH CR (%) [29]: 3.76%; FSH CR (%) [30]: 2.43%; FSH CR (%) [31]: 0.65%; CG CR (%) [32]: 0.78%
40.9 nA	–	6.25%	0.83 nA	0.92	49.7 nA	9.89%	1	0.97	300 nM	40 nM	0.08 nM	35 nM	0.97	0.97	13.7%	0.95	0.68 nA	signaling mouse monoclonal antibody Fitzgerald Cat#10-T25C	electrochemical current of sandwich immunoassay [23]: 0.82 nA
